Tests used:
SU-DHL-6 NHL tumors = experiment: Subcutaneous SU-DHL-6 non-Hodgkin's lymphoma model; type: in vivo, mouse; settings: CB17 SCID mice, s.c. SU-DHL-6, 10 mg/kg q7dx3 IV
Protocol: Female CB17 SCID mice 9 weeks of age were anesthetized with isoflurane and implanted subcutaneously into the right flank with a 1:1 mixture of SU-DHL-6 cells and matrigel. Randomization, enrollment into treatment groups, and start of treatment was initiated approximately 14 days post implantation. Treatment groups are outlined in Table 6. All test articles were formulated in 10 mM citrate pH 6.0, 9% sucrose and diluted in PBS. Body weight and tumor size were monitored twice per week until mean of control treated tumors were >1000 mm^3 or end of study. Animal body weights included the tumor weight. Percent body weight change (BWC) is calculated relative to weight on the day of treatment. No samples were collected at the end of study.
Tumor size on day 18 post-tumor implantation (last day control animals were on study) was analyzed using a one-way analysis of variance (ANOVA) with Dunnett's multiple comparison test. A probability of less than 5% (p<0.05) was considered as significant.

K562 (CML) = experiment: Cell killing assay (cell proliferation, Cell Titer-Glo); type: cell-based; parameters: key to Cell Killing Activity Span: NK = no killing; NB = no binding; settings: 72 hrs
Protocol: (§1) Cytotoxicity effects of the free drug linkers and conjugates were measured with a cell proliferation assay. A total of 12500 cells in a volume of 25 μl were seeded in a 384-well flat bottom white polystyrene plate on the day of assay. Free drug-linkers and conjugates were formulated at 2× starting concentration (1000 nM for free drug linkers and 100 nM for ADCs) in RPMI medium and filtered through MultiScreen HTS 96-Well Filter Plates (Millipore). Filter sterilized samples were serial diluted (1:3) under sterile conditions and added into treatment wells. Plates were cultured at 37° C. in a CO2 incubator for 72 hrs. For cell viability measurement, 30 μl of Cell Titer-Glo® reagent (Promega Corp.) was added into each well, and plates processed as per product instructions. Relative luminescence was measured on an ENVISION® plate reader (Perkin-Elmer; Waltham, Mass.). Relative luminescence readings were converted to % viability using untreated cells as controls. Data was fitted with non-linear regression analysis, using log(inhibitor) vs. response, variable slope, 4 parameter fit equation using GraphPad Prism. Data was expressed as % relative cell viability vs. dose of free drug-linker or conjugate in nM.

OPM-2 (MM) = experiment: as above; type: cell-based; parameters: key to Cell Killing Activity Span: NK = no killing; NB = no binding; settings: 72 hrs
Protocol: as §1

RPMI-8226 (MM) = experiment: as above; type: cell-based; parameters: key to Cell Killing Activity Span: NK = no killing; NB = no binding; settings: 72 hrs
Protocol: as §1

[1] = system: MM.1S multiple myeloma cells; experiment: Disseminated MM.1S multiple myeloma model; type: in vivo, mouse; settings: NSG mice; for survival: MM.1S i.v., day 129 post inoculation; for tumor burden: hCD138+ myeloma cells in the bone marrow / hCD138+ cells in the bone marrow: MM.1S; for tumor burden: hCD138+ myeloma cells in the bone marrow: day 32; for hCD138+ cells in the bone marrow: day 129
Protocol: Female NOD SCID gamma (NSG) mice 8 weeks of age were inoculated with multiple myeloma MM.1S cells into the tail vein. Randomization by body weight and start of treatment was initiated 11 days post tumor inoculation. Treatment groups are outlined in Table 5. Test articles were formulated in 10 mM citrate, pH 6.0, 10% sucrose and diluted in PBS for administration. […] For each group, a subset of animals was used for bone marrow harvest and analysis (n=3) and the remaining animals (n=5) were monitored for survival. Survival endpoint was characterized by >20% body weight loss and clinical signs including lethargy, hind limb paralysis or moribundity. On day 32 (3 weeks after start of treatment), 3 animals from each group were randomly chosen to be euthanized for bone marrow harvest (pooled from tibia and femur) for flow cytometry. On day 129 (˜4 months after start of treatment), all surviving animals were euthanized and bone marrow was harvested (pooled from tibia and femur) for flow cytometry.
Body weights were monitored at least twice per week for up to 129 days. All graphs are presented as mean±standard error of the mean (SEM) versus days post-treatment start.
Percent body weight change (BWC) is calculated relative to weight on the day of treatment. Substantial toxicity was defined as a >20% decrease in animal weight, at which point affected animals are euthanized.
Bone marrow cells from mouse femur and tibia were pooled and assessed for human CD138 expression using the Alexa Fluor 647 mouse anti-human CD138 clone MI15 (BD Biosciences #562097) according to the manufacturer's protocol. CD138 is a specific surface antigen for MM and plasma cells in the bone marrow (Chilosi, M. et al. (1999), supra). Direct immunofluorescence flow cytometric analysis was performed using an LSRII flow cytometer and FACS Diva Software. Data was analyzed using Flowjo (Tree Star, Inc., Ashland, Oreg.).
Human CD138+ cells in the bone marrow on day 32 was analyzed using one-way analysis of variance (ANOVA) with a Dunnett's adjustment at 0.05 significance level. Data from MM.1 s positive control were excluded from analysis. A probability of less than 5% (p<0.05) was considered as significant.

SUP-B15 (ALL) = experiment: Cell killing assay (cell proliferation, Cell Titer-Glo); type: cell-based; settings: 72 hrs
Protocol: as §1

MJ T lymphoma cells = experiment: T lymphoma cell line cell killing assay; type: cell-based; parameters: key to Cell killing Span: NC = Not Calculable; NK = No Killing; settings: 120 hours
Protocol: (§2) A total of 12500 cells in a volume of 25 μL were seeded in a 384-well flat bottom white polystyrene plate the day before the assay. […] Filter-sterilized compounds were serial diluted in culture medium and 25 μL of the compounds were added into treatment wells in quadruplicates. Plates were cultured at 37° C. in a CO2 incubator for 120 hours. For cell viability measurement, 30 μL of Cell Titer-Glo® reagent (Promega Corp.; Madison, Wis.) was added into each well, and plates were processed per product instructions. Relative luminescence was measured on an ENVISION® plate reader (Perkin-Elmer; Waltham, Mass.). Relative luminescence readings were converted to percent (%) viability using untreated cells as controls. Data was fitted with non-linear regression analysis, using log(inhibitor) vs. response, variable slope, 4-parameter fit equation using GraphPad Prism (GraphPad v 5.00, Software; San Diego, Calif.). Data was expressed as percent (%) relative cell viability (average of the quadruplicates) vs. dose of compounds in units of nanomolar (nM). Cell killing EC50 values and span were calculated by Prism in order to evaluate the potency of each compound on each cell line.

Jurkat T leukemia cells = experiment: T lymphoma cell line cell killing assay; type: cell-based; parameters: key to Cell killing Span: NC = Not Calculable; NK = No Killing; settings: 120 hours
Protocol: as §2

B1: Conjugate A: anti-CD74 IgG with pAMF at heavy chain EU position 404 conjugated to DBCO-PEG4-maytansine (conjugate)
VH: QVQLVESGGGVVQPGRSLRLSCAASGFNFSDYGMHWVRQAPGKGLEWVAVIWYDGSISYYADSVKGRFTISRDNSKNTLYLQMNSLRAEDTAVYYCARGGTVEHGAVYGTDVWGQGTTVTVSS
VL: DIQMTQSPSSVSASVGDRVTITCRASQGIGSWLAWYQQKPGKAPKLLIYAADRLQSGVPSRFSGSGSGTDFTLTISSLQPEDFATYYCQQYHTYPLTFGGGTKVEIK
modifications: non-natural residues
SU-DHL-6 NHL tumors
  Average final tumor size on day 18: 291 mm^3
  tolerability (effects on animal body weights): well tolerated
SU-DHL-6 NHL tumors; day 18
  tumor growth inhibition compared to control: ~80%
K562 (CML)
  Cell Killing Activity Span: NK
  IC50: > 50 nM
OPM-2 (MM)
  Cell Killing Activity Span: NK
  IC50: > 50 nM
RPMI-8226 (MM)
  Cell Killing Activity Span: NK
  IC50: > 50 nM
[1]; 3 mg/kg q7dx3 IV
  survival: 100%
  tumor burden: hCD138+ myeloma cells in the bone marrow: significantly reduced tumor burden
  hCD138+ cells in the bone marrow: no hCD138+ cells were detected
[1]; 10 mg/kg q7dx3 IV
  survival: 100%
  tumor burden: hCD138+ myeloma cells in the bone marrow: significantly reduced tumor burden
  hCD138+ cells in the bone marrow: no hCD138+ cells were detected
SUP-B15 (ALL)
  Cell Killing Activity Span: 64%
SUP-B15 (ALL); listed as A
  Cell Killing Activity Span: 65%
MJ T lymphoma cells
  Cell killing Span: NC
  cell killing activity (in words): less potent cell killing
Jurkat T leukemia cells
  Cell killing Span: NK
  EC50: > 50 nM
  cell killing activity (in words): No cell killing was observed

From patent publication US20200207859A1 (priority 2017, published 2020)
